Experimental data published in publication PMC9876794 (2022).
Numbering of substitutions follows the chain as printed.

B1: B26 (antibody, V domains shown)
VH: QVQLQQPGAELVKPGASVKMSCKASGYTFTSYWITWVKQRPGQGLEWIGDIYPGSGSTNYNEKFKSKATLTVDTSSSTAYMQLSSLTSEDSAVYYCARDWDYGSSYWYFDVWGTGTTVTVSS
VL: DIKMTQSPSSMYASLGERVTITCKASQDIKSYLSWYQQKPWKSPKTLIYYATSLADGVPSRFSGSGSGQDYSLTISSLASDDTATYYCLQHGESPYTFGGGTKLEIK
B2: B02 (antibody, V domains shown)
VH: QVQLQQPGAELVKPGASVKVSCKASGYTFTSYWMHWVKQRPGQGLEWIGRIHPSDSDTNYNQKFKGKATLTVDKSSSTAYMQLSSLTSEDSAVYYCAMDWDVDYWGQGTTLTVSS
VL: QIVLTQSPALMSASPGEKVTMTCSASSSVSYMYWYQQKPRSSPKPWIYLTSNLASGVPARFSGSGSGTSYSLTISSMEAEDAATYYCQQWSSNPFTFGSGTKLEIK
B3: B42 (antibody, V domains shown)
VH: B2 VH with G66D, Y95F, A97V, M98I, W100H, D101Y, V102F
VL: DIVMSQSPSSLAVSAGEKVTMSCKSSQSLLNSRTRKNYLAWYQQKPGQSPKLLIYWASTRESGVPDRFTGSGSGTDFTLTISSVQAEDLAVYYCKQSYNLYTFGGGTKLEIK
B4: A21 (antibody, V domains shown)
VH: QVQLQQSGAELVKPGASVKISCKASGYSFSDYWMNWVKQRPGKGLEWIGQIFPGDGDTNYNGKFKGKAALTADKSSSTAYMQLSSLTSEDSAVYFCARRELNYFDYWGQGTTLTVSS
VL: QIVLTQSPAIMSASPGEKVTMTCSASSSVSYMFWYQQKPGSSPRLLIYDTSNLASGVPVRFSGSGSGTSYSLTVSRMEAEDAATYYCQQWSSYPLTFGSGTKLEIK
B5: B45 (antibody)
chain 1: QVQLQQPGAELVKPGASVKVSCKASGYTFTSYWMHWVKQRPGQGLEWIGRIHPSDSDTNYNQKFKGKATLTVDKSSSTAYMQLCSLTSEDCAVYYCAIWEDYGVFYAMDYWGQGTSVTVSS
chain 2: DIVMTQSQKFMSTSVGDRVSVTCKASQNVGTNVAWYQQKPGQSPKALIYSASYRYSGVPDRFTGSGSGTDFTLTISNVQSEDLAEYFCQQYNSYPLTFGAGAKLELK
B6: B04 (antibody, V domains shown)
VH: QVQLKQSGAELVRPGASVKLSCKASGYTFTDYYITWVKQRPGQGLEWIARICPGSGNTFYNEKFMGKATLTAEKSSSTAYMQLSSLTSEDSAVYFCARRGTLLYAFAYWGQGTLVTVSA
VL: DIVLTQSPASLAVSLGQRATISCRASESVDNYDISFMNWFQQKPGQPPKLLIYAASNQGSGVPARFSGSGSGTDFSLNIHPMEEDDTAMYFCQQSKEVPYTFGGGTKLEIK
B7: B33 (antibody, V domains shown)
VH: EVQLQQSGPELVKPGTSVKISCKASGYSFTGYYMNWVKQSPEKSLEWIGEINPSTGGTTYNQKFKAKATLTVDKSSSTAYMQLKSLTSEDSAVYYCARADYWGQGTTLTVSS
VL: DIVLTQSPASLAVSLGQRATISCRASESVEYYVTSLMQWYQQKPGQPPKLLIYAASNVESGVPARFSGSGSGTDFSLNIHPVEEDDIAMYFCQQSREVPYTFGGGTKLEIK
B8: B08 (antibody, V domains shown)
VH: EVQLQQSGPELVKPGASVKISCKASGYSFTGYYMNWVKQSPEKSLEWIGEINPSTGGTTYNQKFKAKATLTVDKSSSTAYMQLKSLTSEDSAVYYCARGGADVWGTGTTVTVSS
VL: B7 VL with V33G, E97K, Y100W
B9: B47 (antibody, V domains shown)
VH: B8 VH with G26D, G100S, A101G, D102A, V103Y, T106Q, T109L, S114A
VL: B7 VL with V33G, E97K
B10: B03 (antibody, V domains shown)
VH: B8 VH with T58A, Y80S, G99A, G100A, A101G, V103Y, T106Q, V110L
VL: B7 VL with V33G, E97K, Y100W
B11: B44 (antibody, V domains shown)
VH: QVQLQQPGAELVKPGASVKVSCKASGYTFTSYWMHWVKQRPGQGLEWIGRIHPSDSDTNYNQKFKGKATFTVDKSSSTAYMQLSSLTSEDSAVYYCAIGDGRDFDYWGQGTTLTVSS
VL: DVVLTQTPLSLPVNIGDQASISCKSTKSLLNSDGFTYLDWYLQKPGQSPQLLIYLVSNRFSGVPDRFSGSGSGTDFTLKISRVEAEDLGVYYCFQSNYLPLTFGSGTKLEIK
B12: B01 (antibody, V domains shown)
VH: B11 VH with V18M, F70L, D100G
VL: B11 VL with V56F, L101W, S105G
B13: B07 (antibody, V domains shown)
VH: QVQLQQSGPELVKPGASVKISCKASGYVFSSSWMNWVKQRPGKGLEWIGRIYPGDGETNYNGKFKGKATLTADKSSSTAYMQLSSLTSEDSAVYFCARFDYGYDGHVWGTGTTVTVSS
VL: DIVMTQSQKFMSTSVGDRVSVTCKASQNVGTNVAWYQQKPGQSPKALIYSASYLYSGVPDRFTGSGSGTDFTLTISNVQSEDLAEYFCQQYNSYPLLTFGAGTKLELK
B14: A16 (antibody, V domains shown)
VH: DVQLQESGPGLVKPSQSLSLTCSVTGYSITSGYYWNWIRQFPGNKLEWMGYISYDGSNNYNPSLKNRISITRDTSKNQFFLKLNSVTTEDTATYYCARFHYGSRPRYWYFDVWGTGTTVTVSS
VL: DIQMTQTTSSLSASLGDRVTISCSASQGIRNYLNWYQQKPDGTVKLLIYYTSSLHSGVPSRFSGSGSGTDYSLTISNLEPEDIATYYCQQYSKLPWTFGGGTKLEIK
B15: B06 (antibody, V domains shown)
VH: QAYLQQSGAELVRPGASVKMSCKASGYTFTSYNMHWVKQTPRQGLEWIGAFYPGNGDTSYNQKFKGKATLTVDKSSSTAYMQLSSLTSEDSAVYFCARDGYPYYYAMDYWGQGTSVTVSS
VL: DIKMTQSPSSMYASLGERVTITCKASQDINSFLSWFQQKPGKSPKTLIYRANRLVDGVPSRFSGSGSGQDYSLTISSLEYEDMGIYYCLQYDEFPWTFGGGTKLEIK
B16: B22 (antibody, V domains shown)
VH: EVKLEESGGGLVQPGGSMKLSCAASGFTFSDAWMDWVRQSPEKGLEWVAEIRNKANNHAIYYAESVKGRFTISRDDSKSSVYLQMNSLRAEDTGIYYCILFLTGHFDYWGQGTTLTVSS
VL: DIVMTQSQKFMSTSVGDRVSITCKASQNVRTAVVWYQEKPGQSPKTLIYLASNRHTGVPDRFTGSGSGTDFTLTISNVQSEDLADYFCLQHWNYPLTFGSGTKLEIK
B17: B23 (antibody, V domains shown)
VH: EVKLEESGGGLVQPGGSMKLSCAASGFTFSDAWMDWVRQSPEKGLEWIAEIRNKANNHATYYAESVKGRFTISRDDSKSSVYLQMNSLRAEDTGIYYCTRGLTGPYFDYWGQGTTLTVSS
VL: B16 VL with S20T, V34A, E38Q, T46A, S100A, I106L
B18: B21 (antibody, V domains shown)
VH: B16 VH with I60T, I99T
VL: B16 VL with V34A, E38Q, T46A
B19: B43 (antibody, V domains shown)
VH: DVQLQESGPGLVKPSQSLSLTCSVTGYSITSGYYWNWIRQSPGNKLEWMGYISYDGSNKYNPSLKNRISITRDTSKNQFFLKLNSVTTEDTAIYYCARWDKGAMDYWGQGTSVTVSS
VL: B16 VL with V34A, E38Q, T46A, S65G, S100A, I106L
B20: A11 (antibody, V domains shown)
VH: QVQLQQPGAELVKPGTSVKLSCKASGYTFTSYWMHWVKQRPGQGLEWIGMIHPNSGNTNYNEKFKSKATLTVDKSSSTAYMQLSSLTSEDSAVYYCADLGAWFAYWGQGTLVTVSA
VL: QIVLTQSPAIMSASPGEKVTMTCSASSSISYMHWYQQKPGTSPKRWIYDTSKLASGVPARFSGSGSGTSYSLTISSMEAEDAATYYCHQRSSYPWTFGGGTKLEIK
B21: A49 (antibody, V domains shown)
VH: QVQLQQSGSELARPGASVNLSCKASGYTFTSYGVSWVKQRTGQGLEWIGDIYPRSGNSYYNEKFKGKATLTADKSSSTAYMELRSLTSEDSAVYFCAREVYGYEFDYWGQGTTLTVSS
VL: DIQMTQTTSSLSASLGDRVTISCRASQDISNYLNWYQQKPDGTVQLLIYYTSRLHSGVPSRFSGSGSGTDYSLTISNLEQEDIATYFCQQGNTLPRTFGGGTKLEIK
B22: A23 (antibody, V domains shown)
VH: QAYLQQSGAELVRPGASVKMSCKASGYTFTSYNMHWVKQTPRQGLEWIGAIYPGNGDTSYNQKFKDKATLTVDKSSSTAYMQLSSLTSGDSAVYFCARDYYGCSYGYFDVWGTGTTVTVSS
VL: B14 VL with R30S, W96Y
B23: B32 (antibody, V domains shown)
VH: QVQLQQSGPELVKPGASVKISCKASGYAFSSSWMNWVKQRPGKGLEWIGRIYPGDGDTNYNGKFKGKATLTADKSSSTAYMQLSSLTSEDSAVYFCARELDPPWGQGTTLTVSS
VL: DILMTQSPSSMSVSLGDTVSITCHASQGISSNIGWLQQKPGKSFKGLIYHGTNLEDGVPSRFCGSGSGADYSLTISSLESEDFADYYCVQYAQFPFTFGSGTKLEIK

Target: SARS-CoV-2 spike RBD (WT) (Severe acute respiratory syndrome …, UniProt P0DTC2)
Test: BLI

| Binder | Kd [nM] |
| --- | --- |
| B1 | 104 |
| B2 | 580 |
| B3 | 91.8 |
| B4 | 138 |
| B5 | 837 |
| B6 | 100 |
| B7 | 72.7 |
| B8 | 87.2 |
| B9 | 26.5 |
| B10 | 52.6 |
| B11 | 123 |
| B12 | 18.7 |
| B13 | 17700 |
| B14 | 140 |
| B15 | 110 |
| B16 | 269 |
| B17 | 211 |
| B18 | 17.2 |
| B19 | 40.7 |
| B20 | 7620 |
| B21 | 482 |
| B22 | 850 |
| B23 | 95.8 |
